Results reported in article PMC10409785 (Nature Communications, 2023).

Biological target: T1, human Uba7 (human, UniProt P41226 1-1012, Cys599 crosslinked to UBE2L6 Cys86 (in the cryo-EM complexes only))
T1 construct: also called hUba7; E1; source: E. coli BL21 codon plus or Hi5 insect cells (baculovirus), purified (Ni-NTA, Superdex 200, Enrich Q); not shown: His6 (insect cell construct), N-terminal, cleaved
T1 sequence: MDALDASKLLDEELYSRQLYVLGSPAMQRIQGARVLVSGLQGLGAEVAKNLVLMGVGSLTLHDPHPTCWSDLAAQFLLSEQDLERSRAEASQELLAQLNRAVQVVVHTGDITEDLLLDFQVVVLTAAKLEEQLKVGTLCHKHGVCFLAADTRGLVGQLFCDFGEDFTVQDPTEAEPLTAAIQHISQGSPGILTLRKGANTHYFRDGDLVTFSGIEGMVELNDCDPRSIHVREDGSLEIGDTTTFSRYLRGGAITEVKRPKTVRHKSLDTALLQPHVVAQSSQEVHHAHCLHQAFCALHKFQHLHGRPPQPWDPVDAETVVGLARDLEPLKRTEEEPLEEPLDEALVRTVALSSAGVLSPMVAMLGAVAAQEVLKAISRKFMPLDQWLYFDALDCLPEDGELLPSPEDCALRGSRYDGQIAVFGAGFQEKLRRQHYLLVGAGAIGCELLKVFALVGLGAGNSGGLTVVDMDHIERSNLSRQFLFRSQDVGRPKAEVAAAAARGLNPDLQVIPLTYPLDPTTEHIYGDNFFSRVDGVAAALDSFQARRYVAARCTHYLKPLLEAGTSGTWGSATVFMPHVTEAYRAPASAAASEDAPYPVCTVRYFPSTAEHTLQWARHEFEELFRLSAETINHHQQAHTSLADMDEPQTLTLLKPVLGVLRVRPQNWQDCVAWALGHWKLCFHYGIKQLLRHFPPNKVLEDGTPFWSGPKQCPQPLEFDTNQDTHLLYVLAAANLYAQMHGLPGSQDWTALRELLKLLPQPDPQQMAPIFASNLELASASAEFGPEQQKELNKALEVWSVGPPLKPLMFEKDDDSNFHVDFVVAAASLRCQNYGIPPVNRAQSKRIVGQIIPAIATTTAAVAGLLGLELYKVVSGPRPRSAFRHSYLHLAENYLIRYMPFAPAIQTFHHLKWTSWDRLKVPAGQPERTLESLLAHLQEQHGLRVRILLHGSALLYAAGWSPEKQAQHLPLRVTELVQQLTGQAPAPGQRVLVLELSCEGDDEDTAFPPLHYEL
Assay: cryo-EM structure; double-loaded Uba7-UBE2L6-ISG15(t)/ISG15(a) mimetic: ISG15 C76S isopeptide-linked to UBE2L6 L121K, UBE2L6 Cys86 (Aldrithiol-4 activated) crosslinked to Uba7 Cys599, then 1.2 molar excess of ISG15, ATP and Mg2+ for 30 min at 4 °C; frozen at 3.0 mg/ml
Conditions: both partners purified

B1: UBE2L6 (C98S/C102S/L121K) (enzyme, human)
chain: MASMRVVKELEDLQKKPPPYLRNLSSDDANVLVWHALLLPDQPPYHLKAFNLRISFPPEYPFKPPMIKFTTKIYHPNVDENGQICLPIISSENWKPSTKTSQVLEALNVLVNRPNIREPKRMDLADLLTQNPELFRKNAEEFTLRFGVDRPS
modifications: Lys121 (L121K) isopeptide-linked to Gly157 of ISG15 C76S; Cys86 activated with Aldrithiol-4 and crosslinked to Uba7 Cys599
notes: The 6XHis-tag was cleaved with TEV protease 'when required'; source: E. coli BL21 codon plus, purified (Ni-NTA, Superdex 75, Enrich Q)
- binding result: binds
